Laboratory results reported in paper PMC3094505.
Where two headings read alike, the source gives them in different places.

Experiments:
[1] = molecular target: Fluoresceinated Nav1.2IQp, peptide of residues 1901-1927 of the Nav1.2 alpha-subunit; assay: fluorescence polarisation
[2] = molecular target: Fluoresceinated Nav1.2IQp, peptide of residues 1901-1927 of the Nav1.2 alpha-subunit; assay: fluorescence polarisation; remark: listed apart in the source

Kd [1]: 70.8 µM | Kd [2]: 1.64 µM
Substance: Paramecium calmodulin N-domain (residues 1-80) (from UniProt P07463 2-81) (domain or fragment)
